Where no end group is shown, it is not given here.
Key:
Type in all cases: biochemical
PKA = PKA (Mus musculus, UniProt P05132); assay: GFP mutant K8 quenching assay with protein kinase A inhibitors; conditions: 1 mM versus 0.1 mM ATP
Method: The protein kinase A inhibitors PKI (protein kinase A heat-stable inhibitor, isoform alpha (Calbiochem #539488) and H-89 (N-[2-((p-bromocinnamyl)amino)ethyl]-5-isoquinoline sulfonamide, HCl) (Calbiochem #371963) were tested in the preferred assay condition to determine if they could be detected using the GFP mutant K8 quenching assay. Both compounds were tested individually (between 0.1 and 1,000 nM) and pre-incubated with PKA in the absence of mutant K8 for 10 minutes at 4° C. Then, GFP mutant K8 was added to a final concentration of 4 μM and the mixtures were incubated for thirty minutes at 30° C. The kinase reactions were terminated by the addition of the preferred acetate quenching conditions (100 mM acetate, 100 mM NaCl, pH 5.0, 25 mM beta-glycerol phosphate). The fluorescence of these samples was measured 14 to 16 hours later. The results of these studies establish that the GFP mutant K8 quenching assay can be used to detect kinase inhibitors and further validates the methodology for drug screening.
The protein kinase A inhibitor H-89 was tested in the GFP mutant K8 kinase assay at two different ATP concentrations (0.1 mM and 1 mM). […] Because the GFP kinase assay can be performed at both high and low ATP concentrations, this method can be used to identify, measure, and detect ATP antagonists. […]

PKC ε = target: T1, PKC ε (Homo sapiens, UniProt Q02156); assay: Rate of phosphorylation of GFP PKC substrates, ^32P incorporation; conditions: 5 micromolar GFP mutant, 0.2 μg PKC isoform, 30 minutes at 30° C.
T1 sequence (Q02156 1-737): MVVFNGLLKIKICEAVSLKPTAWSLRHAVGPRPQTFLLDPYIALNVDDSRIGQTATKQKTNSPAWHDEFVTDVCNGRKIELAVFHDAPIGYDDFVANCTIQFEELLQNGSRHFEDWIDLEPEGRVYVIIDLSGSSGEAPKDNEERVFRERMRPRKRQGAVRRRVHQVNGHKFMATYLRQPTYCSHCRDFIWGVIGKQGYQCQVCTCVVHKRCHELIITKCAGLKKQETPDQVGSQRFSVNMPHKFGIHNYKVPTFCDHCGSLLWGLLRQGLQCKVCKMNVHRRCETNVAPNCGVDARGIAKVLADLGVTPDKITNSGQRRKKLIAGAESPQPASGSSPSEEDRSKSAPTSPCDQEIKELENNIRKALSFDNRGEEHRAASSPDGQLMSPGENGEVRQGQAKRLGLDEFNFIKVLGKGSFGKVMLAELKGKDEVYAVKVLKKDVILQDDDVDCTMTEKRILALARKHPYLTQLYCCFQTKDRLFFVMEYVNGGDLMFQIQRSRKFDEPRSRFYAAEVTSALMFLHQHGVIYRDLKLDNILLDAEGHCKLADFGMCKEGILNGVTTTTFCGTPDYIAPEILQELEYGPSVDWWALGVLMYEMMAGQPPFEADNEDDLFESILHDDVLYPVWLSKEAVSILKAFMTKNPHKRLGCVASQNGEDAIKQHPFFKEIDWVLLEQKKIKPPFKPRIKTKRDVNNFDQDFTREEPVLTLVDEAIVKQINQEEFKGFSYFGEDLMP
Method: (§1) The rates of phosphorylation of GFP having PKC motifs were determined by measuring ^32P incorporation in the presence of different PKC isoforms (Table XIII). These examples include one example where a membrane association motif is part of the GFP mutant.
(§2) These experiments were performed by incubating the indicated GFP mutant (5 micromolar) with the indicated PKC isoform (0.2 μg) for 30 minutes at 30° C. in 25 mM TRIS pH 7.5, 1 mM DTT, 10 mM MgCl2 0.1 mM ATP 20 μg/ml phosphatidylserine, 10 μM OAG, 200 μM CaCl2 (for PKCα) and 1 mM EGTA (for PKCs ε and ζ). […] The relative specificities identified for the GFP substrates in this experiment broadly matched those identified by Nishikawa et al (1997) who used non-GFP peptides to selectively measure PCK isoform activity. […] Membrane association motif poly-Lys (hepta-Lys) was added to the C-terminus of GFP mutant K8 with PKC alpha phosphorylation motif at the N-terminus.

PKC ζ = target: T2, PKC ζ (Homo sapiens, UniProt Q05513); assay: as above; conditions: 5 micromolar GFP mutant, 0.2 μg PKC isoform, 30 minutes at 30° C.
T2 sequence (Q05513 1-592): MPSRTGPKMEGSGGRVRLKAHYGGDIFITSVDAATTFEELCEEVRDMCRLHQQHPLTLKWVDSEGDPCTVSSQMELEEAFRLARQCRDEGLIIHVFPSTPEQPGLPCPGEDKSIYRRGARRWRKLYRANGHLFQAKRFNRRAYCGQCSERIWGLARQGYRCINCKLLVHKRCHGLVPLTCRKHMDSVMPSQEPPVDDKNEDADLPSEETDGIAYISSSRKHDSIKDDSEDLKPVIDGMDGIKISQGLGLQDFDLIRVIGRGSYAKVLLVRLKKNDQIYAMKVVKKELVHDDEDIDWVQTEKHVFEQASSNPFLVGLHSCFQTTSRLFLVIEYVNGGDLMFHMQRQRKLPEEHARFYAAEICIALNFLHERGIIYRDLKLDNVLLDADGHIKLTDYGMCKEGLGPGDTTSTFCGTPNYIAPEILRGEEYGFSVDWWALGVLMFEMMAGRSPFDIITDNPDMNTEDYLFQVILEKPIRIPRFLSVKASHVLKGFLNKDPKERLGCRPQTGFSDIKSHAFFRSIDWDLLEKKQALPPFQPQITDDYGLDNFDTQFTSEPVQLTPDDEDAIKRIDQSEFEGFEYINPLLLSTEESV
Method: as §1, §2

PKC alpha = PKC alpha (Homo sapiens, UniProt P17252); assay: as above; conditions: 5 micromolar GFP mutant, 0.2 μg PKC isoform, 30 minutes at 30° C.
Method: as §1, §2

Row | Kinase and Activity (CPM), PKC ε (PKC ε) | Kinase and Activity (CPM), PKC ζ (PKC ζ) | Kinase and Activity (CPM), PKC alpha (PKC alpha) | Molecule | inhibition of kinase activity at the higher ATP concentration (PKA)
1 |  |  |  | Cl.O=S(=O)(NCCNCC=Cc1ccc(Br)cc1)c1cccc2cnccc12 [H-89, N-[2-((p-bromocinnamyl)amino)ethyl]-5-isoquinoline sulfonamide, HCl] | much less efficient at inhibiting kinase activity
2 | 12,688 CPM | 8,421 CPM | 4,745 CPM | Pkc 7: GFP mutant K8 with PKC ζ motif Arg Arg Phe Lys Arg GIn Gly Ser Phe Phe (RRFKRQGSFF; not fully specified; printed as Arg Arg Phe Lys Arg GIn Gly Ser Phe Phe) | 
3 | 20,259 CPM | 14,606 CPM | 5.230 CPM | Pkc 8: GFP mutant K8 with PKC μ motif Ala Ala Leu Val Arg GIn Met Ser Val Ala (AALVRQMSVA; not fully specified; printed as Ala Ala Leu Val Arg GIn Met Ser Val Ala) | 

— US20080166749A1, “Fluorescent Protein Sensors of Post-Translational Modifications” (INVITROGEN CORPORATION, priority 1998, published 2008)
